This assay concerns the target T1, PYK2 (UniProt Q14289 1-1009, limits assumed).
T1 construct: Endogenous protein in cell lysate, detected with anti-PYK2 monoclonal antibody P47120 (Transduction Labs)
As to the kind of experiment: GST pull-down from JY8-8 lysate, anti-Pyk2 immunoblot. The protocol:
In preparation of cell lysate including Pyk2, JY8-8 cell lysate was prepared by disrupting 4×10⁷ exponentially growing cells in one ml of Ipegal Lysis Buffer (described above) for 10 minutes on ice. Lysate was clarified by centrifugation at 10,000 rpm in a microfuge at 4° C. JY8-8 lysate (corresponding to approximately 1×10⁷ cells) was incubated for 90 minutes with 30 μl glutathione agarose on which approximately one μg of GST or GST-containing fusion protein was immobilized. The resin was washed three times with one ml Ipegal lysis buffer.
Pyk2 present in lysates of JY8-8 cells bound specifically to GST-LD protein but not to GST alone. Pyk2 binding was detected with wild-type GST-LD, and GST-LD proteins with mutations in the second or fourth LD motifs.
On the technique in general: In western blotting, separated proteins are transferred to a membrane and probed.

T1 sequence (Q14289 whole entry): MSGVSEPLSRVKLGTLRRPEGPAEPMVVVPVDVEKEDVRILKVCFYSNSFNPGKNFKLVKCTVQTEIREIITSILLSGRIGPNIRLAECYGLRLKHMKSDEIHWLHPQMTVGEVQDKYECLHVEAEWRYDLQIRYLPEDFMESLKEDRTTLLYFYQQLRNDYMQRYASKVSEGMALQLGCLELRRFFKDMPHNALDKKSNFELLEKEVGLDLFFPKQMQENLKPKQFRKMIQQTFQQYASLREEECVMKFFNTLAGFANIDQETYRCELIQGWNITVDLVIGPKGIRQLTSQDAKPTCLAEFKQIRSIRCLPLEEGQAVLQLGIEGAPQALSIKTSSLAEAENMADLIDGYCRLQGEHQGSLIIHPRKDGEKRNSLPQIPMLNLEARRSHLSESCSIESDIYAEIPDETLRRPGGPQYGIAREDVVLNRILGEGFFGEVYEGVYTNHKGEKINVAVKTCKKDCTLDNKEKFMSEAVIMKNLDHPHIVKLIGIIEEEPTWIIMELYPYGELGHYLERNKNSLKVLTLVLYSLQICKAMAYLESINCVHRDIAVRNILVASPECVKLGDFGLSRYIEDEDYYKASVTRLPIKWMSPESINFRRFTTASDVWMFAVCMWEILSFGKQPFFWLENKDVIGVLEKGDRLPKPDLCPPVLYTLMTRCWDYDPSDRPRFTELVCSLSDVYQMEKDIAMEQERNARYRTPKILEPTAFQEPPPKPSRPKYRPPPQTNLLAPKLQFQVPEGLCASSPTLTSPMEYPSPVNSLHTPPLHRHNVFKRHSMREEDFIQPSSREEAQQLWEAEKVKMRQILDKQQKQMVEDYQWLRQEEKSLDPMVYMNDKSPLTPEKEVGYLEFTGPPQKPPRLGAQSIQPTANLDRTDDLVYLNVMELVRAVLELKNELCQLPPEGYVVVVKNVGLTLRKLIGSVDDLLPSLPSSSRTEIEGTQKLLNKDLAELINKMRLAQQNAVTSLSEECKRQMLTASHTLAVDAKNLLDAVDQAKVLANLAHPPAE

B1: GST-LD with a mutation in the third LD motif (other)
chain: EELDALLEELERSTLQDSDEYSNPAPLPLDQHSRKETNLDETSEILSIQDNTSPLPAQLVYTTNIQELNVYSEAQEPKESPPPSKTSAAAQAAALMAHLTEMQAKVAVRADAGKKHLPDKQDHKASLDSMLGGLEQELQDLGIATVPK
notes: not shown: glutathione-S-transferase (GST) encoded by vector pGEX-4T-1 (Pharmacia)
In the case of B1, the binding result is “no binding”.

Source of the values: US20020177231A1 (published 2002).
